From US20110190477A1 (G2 INFLAMMATION, published 2011) come the findings set out here.

The target of assay [1] is T1, human C5a receptor (human, UniProt P21730 1-350).
T1 construct: On human neutrophils, L1.2/hC5aR transfectants or neutrophils of hC5aR knock-in mice; also called hC5aR; C5aR1
T1 chain: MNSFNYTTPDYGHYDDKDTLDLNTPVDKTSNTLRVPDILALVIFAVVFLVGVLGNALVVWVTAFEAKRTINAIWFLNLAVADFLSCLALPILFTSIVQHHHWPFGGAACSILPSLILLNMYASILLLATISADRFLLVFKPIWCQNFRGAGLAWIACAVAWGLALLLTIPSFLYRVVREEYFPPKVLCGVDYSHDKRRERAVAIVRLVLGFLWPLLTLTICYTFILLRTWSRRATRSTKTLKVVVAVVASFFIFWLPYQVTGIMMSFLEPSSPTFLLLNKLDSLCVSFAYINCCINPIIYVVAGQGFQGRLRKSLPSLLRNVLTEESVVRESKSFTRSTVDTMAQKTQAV
Put plainly: flow cytometry of bound hAb-Q (anti-hIgG-FITC) on human neutrophils, post-chemotaxis lower chamber. As for the experimental part:
(§1) The FACSCalibur flow cytometer was set up with compensation parameters established for channel FL-1. Samples were acquired to exclude dead cells and debris. Neutrophils were identified based on FSC and SSC. The level of bound hAb-Q (anti-hIgG-FITC) or free C5aR (hAb-Q-FITC) was determined by determining the FITC (FL-1) mean fluorescence intensity (MFI) of the neutrophils in a sample.
(§2) Four experiments were carried out. Briefly, purified neutrophils isolated from the venous blood of a healthy volunteer were preincubated for 10 min with hAb-Q at concentrations ranging from 0.001 to 100 μg/ml. A small aliquot of this mix was taken to determine the amount of antibody bound receptor (% receptor occupancy) and the remainder was placed in the upper chamber of a transwell plate. C5a (10 nM) was placed in the lower chamber. After 30 min incubation, the number of cells that had migrated into the lower chamber was determined using FACS. The amount of bound antibody on the neutrophils in both the lower and upper chambers at the end of migration was also determined, using FITC-labelled anti-hIgG and flow cytometry. The level of free receptor (no bound antibody) was determined in one experiment by incubating the neutrophils with FITC-labelled hAb-Q before and after migration.

Assay [2] has as its target T1, human C5a receptor. Put plainly: PK/PD model (NONMEM) fitted to serum concentration and receptor occupancy in hC5aR transgenic mice, toxicology study column. The text has this: (§3) NONMEM VI (non-linear mixed effects modelling software) with first order conditional estimation (FOCE) was used for modelling, and S-PLUS® 8.0 (Insigthful) was used for graphics and data handling. Evaluation of—and discrimination between—intermediate models was based on objective function values and standard graphical evaluation methods. In terms of objective function value, changes in this value were assumed to be chi-squared distributed (for nested models), and criteria for expanding the model were defined and used accordingly.
(§4) Toxicokinetics from the toxicology study in transgenic mice and PK/PD data from the pharmacology study was integrated to assess the relationship between pharmacokinetics and occupancy. […] This is consistent with other studies, observing higher clearance for high doses, due to saturation of the FcRN receptor (Hansen and Balthasar, 2002).

Assay [3] has as its target T2, peptide 23 (33 mer, full length of the 2nd extracellular loop of hC5aR) (human, N-terminal biotin).
T2 construct: also called peptide no; 23
T2 peptide: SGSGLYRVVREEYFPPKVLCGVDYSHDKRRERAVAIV
Put plainly: peptide ELISA, biotin peptide on streptavidin plate.

For assay [4], the target named is T1, human C5a receptor. Nature of the assay: flow cytometry of bound hAb-Q (anti-hIgG-FITC) on human neutrophils, pre-chemotaxis samples. As for the experimental part:
as §1, §2

Assay [5] addresses T1, human C5a receptor. Put plainly: PK/PD model (NONMEM) fitted to serum concentration and receptor occupancy in hC5aR transgenic mice, pharmacology study column.
Excerpt: as §3, §4

B1: humanized anti-C5aR antibody hAb-Q (antibody, human IgG4 S228P, kappa)
light: DVVMTQSPLSLPVTLGEPASISCRSSQSLVHSNGNTYLHWYLQKPGQSPQLLIYKVSNRFSGVPDRFSGSGSGTDFTLKISRVEAEDVGVYFCSQSTLVPLTFGQGTKLEIKRTVAAPSVFIFPPSDEQLKSGTASVVCLLNNFYPREAKVQWKVDNALQSGNSQESVTEQDSKDSTYSLSSTLTLSKADYEKHKVYACEVTHQGLSSPVTKSFNRGEC
heavy: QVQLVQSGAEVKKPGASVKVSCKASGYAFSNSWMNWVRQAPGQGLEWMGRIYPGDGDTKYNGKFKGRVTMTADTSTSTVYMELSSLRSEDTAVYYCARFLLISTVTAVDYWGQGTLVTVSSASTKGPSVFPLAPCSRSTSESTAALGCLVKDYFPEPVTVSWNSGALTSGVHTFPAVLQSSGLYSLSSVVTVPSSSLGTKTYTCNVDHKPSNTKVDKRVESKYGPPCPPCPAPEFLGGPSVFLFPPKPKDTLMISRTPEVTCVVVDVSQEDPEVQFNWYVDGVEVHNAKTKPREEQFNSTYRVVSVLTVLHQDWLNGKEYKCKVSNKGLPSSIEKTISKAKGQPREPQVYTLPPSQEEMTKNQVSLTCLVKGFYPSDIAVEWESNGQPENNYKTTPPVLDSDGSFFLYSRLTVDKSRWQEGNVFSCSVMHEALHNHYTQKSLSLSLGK
notes: IgG4 with the Ser228Pro mutation; also called antibody Q; anti-C5aR ab
Turning to B1, the EC50 in assay [1] was determined as 1.1 µg/mL; in assay [4], 0.3 µg/mL. Also, the equilibrium dissociation constant (Kd) in assay [2] and in assay [5] was 0.175 µg/mL each time. In addition, the binding result in assay [3] is reported as “binds”.
